According to US20060241039A1:

Target: FVa light chain (FVaL) derived from ΔFV or its mutants by thrombin (human) (UniProt P12259)
Experiment: cell-based or functional assay

UniProt P12259, sequence (P12259 other isoform, or with tags, fused parts or gaps mutant limits assumed): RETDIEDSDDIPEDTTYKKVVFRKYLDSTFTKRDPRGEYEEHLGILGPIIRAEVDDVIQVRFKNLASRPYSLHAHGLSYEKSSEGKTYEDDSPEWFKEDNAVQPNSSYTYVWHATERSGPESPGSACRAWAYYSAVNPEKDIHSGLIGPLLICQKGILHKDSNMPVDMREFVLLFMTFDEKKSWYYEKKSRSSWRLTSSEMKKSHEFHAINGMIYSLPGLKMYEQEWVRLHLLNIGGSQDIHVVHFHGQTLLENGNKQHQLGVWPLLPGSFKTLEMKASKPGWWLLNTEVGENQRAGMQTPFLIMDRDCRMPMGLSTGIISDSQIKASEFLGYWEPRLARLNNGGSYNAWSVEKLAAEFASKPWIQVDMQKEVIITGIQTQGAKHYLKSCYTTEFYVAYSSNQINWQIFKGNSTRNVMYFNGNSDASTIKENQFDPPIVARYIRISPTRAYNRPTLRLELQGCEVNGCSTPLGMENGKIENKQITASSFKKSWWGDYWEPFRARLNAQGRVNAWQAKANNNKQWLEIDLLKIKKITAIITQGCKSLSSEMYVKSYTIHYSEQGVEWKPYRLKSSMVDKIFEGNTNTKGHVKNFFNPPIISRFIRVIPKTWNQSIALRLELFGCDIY

inhibition of ΔFV activity (prothrombinase function, thrombin generation): 98%
Substance: FVaH derived from ΔFV multipoint mutant ED/EDD (E96, D102, E108, D111 and D112 to Ala) (from UniProt P12259 29-737)
